Measurements reported in patent CN101415728A.
Each block holds one binder with its values, some of them ahead of it.

Molecular target: human IGF-1R expressed on cells (human)
Assay: cell-based or functional assay

inhibition of IGF-1- and IGF-2-mediated IGF-1R phosphorylation in MCF-7 cells, EC50: < 1 nM
B1: M13-C06.G4.P.agly (antibody, part only; not given: constant regions, part only)
heavy, part: EVQLLESGGGLVQPGGSLRLSCAASGFTFSIYRMQWVRQAPGKGLEWVSGISPSGGTTWYADSVKGRFTISRDNSKNTLYLQMNSLRAEDTAVYYCARWSGGSGYAFDIWGQGTMVTVSS
light, part: DIQMTQSPLSLSASVGDRVTITCQASRDIRNYLNWYQQKPGKAPKLLIYDASSLQTGVPSRFGGSGSGTDFSFTIGSLQPEDIATYYCQQFDSLPHTFGQGTKLEIK

inhibition of IGF-1- and IGF-2-mediated IGF-1R phosphorylation in MCF-7 cells, EC50: < 1 nM
B2: M14-C03.G4.P.agly (antibody, part only; not given: constant regions, human IgG4, part only)
heavy, part: EVQLLESGGGLVQPGGSLRLSCAASGFTFSKYMMSWVRQAPGKGLEWVSYISPSGGLTWYADSVKGRFTISRDNSKNTLYLQMNSLRAEDTAVYYCARDGARGYGMDVWGQGTTVTVSS
light, part: DIQMTQSPATLSLSPGERATLSCRASQSVSSYLAWYQQKPGQAPRLLIYDASNRATGIPARFSGSGSGTDFTLTISSLEPEDFAVYYCQQRSNWPPEVTFGPGTKVDIK
